Assay: soluble on expression in E. coli; label from the status in PepcDB or PDB records

Sequence | soluble on expression in E. coli
MVSFKAGINLGGWISQYQVFSKEHFDTFITEKDIETIAEAGFDHVRLPFDYPIIESDDNVGEYKEDGLSYIDRCLEWCKKYNLGLVLDMHHAPGYRFQDFKTSTLFEDPNQQKRFVDIWRFLAKRYINEREHIAFELLNEVVEPDSTRWNKLMLECIKAIREIDSTMWLYIGGNNYNSPDELKNLADIDDDYIVYNFHFYNPFFFTHQKAHWSESAMAYNRTVKYPGQYEGIEEFVKNNPKYSFMMELNNLKLNKELLRKDLKPAIEFREKKKCKLYCGEFGVIAIADLESRIKWHEDYISLLEEYDIGGAVWNYKKMDFEIYNEDRKPVSQELVNILARRKT | soluble
MVSQLACIIWTGIIAGRTATLTEGDNMKLPKWLEEKYDLLWDKFEDREFRSTEALEILGKEHLIDEKSLSAAISEMRKKGWIETRKDPDDERRRIYMLRPKSEIIQDYLTLKDDKLGRADIERILKGAADLIRTRVDYKFILVLLFMKQMSDKWMMEYQKAYEDAIKEYGLSEEEARLEARNSAYHDLDIKEEYLWDNIRKDVENLPIKFAGALKNLAELNPAFKDVVDAFDFVEFTQSQENREILRQLVELFSEKKLTNVDPDILGDAYEWILRYFAPTKAKEGEVYTPREVIRLLVEILDPKPGESVYDPASASNGMLIISHKYVKETYGEAERLFLYGQEVNRKTMALGSMNMYIHDIKDHHIAHGDTLLYPKFKESDGIMRFDVVIANPPWNQDGYGEDTLKKGDYWRERFRYGFVNKQSADWAWIQHMIASAKDDGRIGVVIDNGCLFRGGREKSIRSAVLEDDLIEAVILLPEKLFYNTGAPGAIIILNKDKDEERRGKVLFINAGEEYEKHPEVRKLNILSDGNIERILEAYREFQGDDGFSRVVDLDEIRENDYNLNVPLYAFPEEELEDIDVAGEWMRLSEIEEELAEVDERIRGYLDELGYMGVKM | soluble
MVSSKLATPLSIQGEVIYPDDSGFDAIANIWDGRHLQRPSLIARCLSAGDVAKSVRYACDNGLEISVRSGGHNPNGYATNDGGIVLDLRLMNSIHIDTAGSRARIGGGVISGDLVKEAAKFGLAAVTGMHPKVGFCGLALNGGVGFLTPKYGLASDNILGATLVTATGDVIYCSDDERPELFWAVRGAGPNFGVVTEVEVQLYELPRKMLAGFITWAPSVSELAGLLTSLLDALNEMADHIYPSVFVGVDENRAPSVTVCVGHLGGLDIAERDIARLRGLGRTVSDSIAVRSYDEVVALNAEVGSFEDGMSNLWIDREIAMPNARFAEAIAGNLDKFVSEPASGGSVKLEIEGMPFGNPKRTPARHRDAMGVLALAEWSGAAPGSEKYPELARELDAALLRAGVTTSGFGLLNNNSEVTAEMVAEVYKPEVYSRLAAVKREYDPENRFRHNYNIDPEGS | soluble
MVSSLIRLRGGGLAEWNPEERPSIPAEIKRRVLVEAGHRCAIPTCRHIEVDIHHIVPWRTCQAHEYENLIALCPNCHRRADREEIDRKSLKLYKLNLRFVHEKYSQIEMDMLFDLARAPDGVGAPWTPFMLIFFKRVIDSGFVNVYELPGGIFVNGIKSSPSYLTITELGRNFISELGDRDLLALEHHHHHH | not soluble
MVVLNTPGKYQYDLRNHLLVNLFPIALDAEITTSNVNKHQLHRSNIPAALSGNSGITDYVPFSAERNAAMVIWRTAIDSRPAVCNDEEGTPGTL | not soluble
MVWDVETAKRFLEIIKDEPIYYPALIALHTGMRAGEILSLKWCDVNFETRVISIVKSERKNRGLKTVNLKTKTSKRAVYMNDILYKELKNLYEITKPKPDDFVCPRLPTGNLTVNYLSRKFKKLVKKHNFPLIRFHDLRHTFATLMLSLGVNTKIVAEILGHSDIKLTADTYSHVLPTMQEEAMKEFVKLWKLEHHHHHH | not soluble
MVWTYTYDLDNQLISANKTGSSNSLAYDGAGRLRQTTLAGTITGLTYDGVDLVAEYNSGGTLLRRYVHGPGVDEPLVWYEGTTTTNKTWLYQDQLGSVIGTANSAGTSTAIHSYGPYGEPNIATGIRFRYTGQQFLGSLNLYYYKARFYSPALGRFLQTDPIGIADDLNLYAYVGNNPINFNDPSGLSAAAASMLLGKLGSWGRENAGTLTEIGIGFTPAGFYTDLYSAVAGRTPITGDSLSGWERVAILIPGVSEIRNAGRIGSSIQGVAESTIKQVNPTNLIPTQTRSEMSGSQIKRLEKDMRTNGFDQNKPIDAVRRTDGRLEIQDGHHRVEAAKRAGIDQIPVQIWEKLEHHHHHH | not soluble
MVYFGRAKTLSHRHPNTGSGGCVFSLKTVLLYQQDSYLREFEARVEEASGGRVVLDRTAFHPGPHGGLDTDTGYIFYGDKRYRVVRAAVEGDVVAHYLDSDTATLEPGAVVKGVIDWERRYRMMRLHTFSHILAAVLYEKHDVLVTGGHITPDYGKDDFSIEGGGWREVIEEAFREANEIASRCIEVKVYWLPREEALKIPGIVKLANKLPPEVETLRIVEIPGVDVQADGGPHVRNTCEIGRVVITKLESKGKRRKRVYYTLEEALEPTPEAP | not soluble
MVYKTKLGEIEISDESIFTFEKGIPGFEHLRKFALVFPQETFPIGWLLSLEDSEVGLPVVDPKLVRADYDPAVPSEDLEEIEAENQEALLFFCVLTIPPGKPEKTTINLRAPIILNQKKKKGIQTILENEDYQLRHLLSEEIERSKTVVAAALEHHHHHH | soluble
MWAQKTLQLKARSRGFHLITDEIEQQLPQIHELSVGLLHLFIQHTSASLTLNENADPTVRMDMEAHFNKFVQERAPYYQHTYEGDDDMPAHIKASLLGSSVTIPIQNGRLALGTWQGIYLGEHRDFGGSRRIIATINGELEHHHHHH | soluble
MWDVIVVGGGPSGLSAALFLARAGLKVLVLDGGRSKVKGVSRVPNYPGLLDEPSGEELLRRLEAHARRYGAEVRPGVVKGVRDMGGVFEVETEEGVEKAERLLLCTHKDPTLPSLLGLTRRGAYIDTDEGGRTSYPRVYAAGVARGKVPGHAIISAGDGAYVAVHLVSDLRGEPYKDHAL | soluble
MWFFNKNLKVLAPCDGTIITLDEVEDEVFKERMLGDGFAINPKSNDFHAPVSGKLVTAFPTKHAFGIQTKSGVEILLHIGLDTVSLDGNGFESFVTQDQEVNAGDKLVTVDLKSVAKKVPSIKSPIIFTNNGGKTLEIVKMGEVKQGDVVAILK | soluble
MWFIMMDTKDPPTLLDLATQNLLSNEHAAIQALEEIPRELFVPLFTAAFTGRHKNILTAIVKAWPFACLHIGALSVQEPERELLKALIESLQFLLALNSATRSPKLRILDLRQDAGCKTVCPEISTNSTICFRSCAHSEHSIFKIEGQESLSSSKSEAQPSRLPMELIVDISLDGTLRERNFFALLQNKVEQSLGSLHLCCRDLQINNLCECRHALSHLDLKCVDHLAVDESPLTEVTKLLSHTIQLDSLSLSKIACRSLNGRTFRNFITQLSRMNHLKELSLSSFCLTDHLENVLRVLSADLEFLYLPFCGLSYSDFKFLSECSQVSHLKLLNVNNNPIYWEDCEPFYYLLQNVSSTLQHLKICYCFLTDSTISVLIPALTRCSQLRVLHFYSNQITMGMLMRILELLTPLKELKHVIYPIPVHCYGRWHFQGSLDRQKVEDVQRQLNLMLQEAERSDMNWITYSD | not soluble
MWGACKVKVHDSLATISITLRRYLRLGATMAKSKFEYVRDFEADDTCLAHCWVVVRLDGRNFHRFAEKHNFAKPNDSRALQLMTKCAQTVMEELEDIVIAYGQSDEYSFVFKRKTNWFKRRASKFMTHVASQFASSYVFYWRDYFEDQPLLYPPGFDGRVVVYPSNQTLKDYLSWRQADCHINNLYNTVFWALIQQSGLTPVQAQGRLQGTLAADKNEILFSEFNINYNNEPPMYRKGTVLIWQKVDEVMTKEIKLPTEMEGKKMAVTRTRTKPVPLHCDIIGDAFWKEHPEILDEDS | soluble
MWIGMRDKWKGVGKVTQQEIIESLLQFINQETSTEEEFNEHALMLFAYQYENNLPYRTYCMQKGKTARTVKTWRDIPAVPINAFKELTLSCVSPEQAERVFMTSGTTRGVRGKHYHPTLSVYDHSMIVNFRKRFMKERDKIKMGILFPTEEHMPNSSLAHYLALAVNVFGTEDSHYLVDRDGLNMDRLLAELEQAEQSGEPYALLGASFSFVHVFEELAKRGKTFRLPEGSRILDTGGFKNQSREMDLDEFYDTLSAYLGVPRRECINMYGMTELSTQFYDDGNETVPSVKSGPHWIRTRVIHPLTGEEMPKGKRGVLVHCDLGNFNSVTTILTEDMGVETDGGFLLLGRVQGAEAKGCSMAVEEFIRAAKGTSELEHHHHHH | not soluble

Source: the DeepSol protein solubility set
